Patent US20090214627

T1: Peptide 2: Arg-Thr-Glu-Ser-Ile-Thr-Ala-Thr-Ser-Pro-Ala-Ser-Met-Val-Gly-Gly-Lys-Pro (second IRS-1 peptide)
T1 chain: RTESITATSPASMVGGKP

T2: Peptide 1: Lys-Lys-His-Ala-Asp-Asp-Gly-Ala-Met-Pro-Met-Ser-Pro-Gly-Val-Ala (mutant IRS-1 peptide)
T2 chain: KKHADDGAMPMSPGVA


Experiments:
[1] = system: insulin receptor substrate-1 (IRS-1) peptide Y^608
[2] = target: T1, Peptide 2: …
[3] = target: T2, Peptide 1: …
[4] = target: insulin receptor substrate-1 (IRS-1) peptide Y^608; remark: listed apart in the source

Molecule | IRS phosphorylation by BVR (32P kinase assay) [1] | peptide phosphorylation by BVR (32P retained on P81 filters) [2] | peptide phosphorylation by BVR (32P retained on P81 filters) [3] | IRS-1 phosphorylation by BVR (32P kinase assay) [4] | peptide phosphorylation by BVR (32P retained on P81 filters) [4] | phosphorylation of BVR by IRK in the presence of increasing molar ratio of IRS/BVR [4]
GST-hBVR G17 mutant (GVGRA to GVARA), ATP binding domain mutant | G^17 mutation, for the most part, prevented IRS phosphorylation by BVR |  |  |  |  | 
GST-hBVR fusion protein, wild type (human biliverdin reductase fused to glutathione-S-transferase) (protein) MNAEPERKFGVVVVGVGRAGSVRMRDLRNPHPSSAFLNLIGFVSRRELGSIDGVQQISLEDALSSQEVEVAYICSESSSHEDYIRQFLNAGKHVLVEYPMTLSLAAAQELWELAEQKGKVLHEEHVELLMEEFAFLKKEVVGKDLLKGSLLFTSDPLEEDRFGFPAFSGISRLTWLVSLFGELSLVSATLEERKEDQYMKMTVCLETEKKSPLSWIEEKGPGLKRNRYLSFHFKSGSLENVPNVGVNKNIFLKDQNIFVQKLLGQFSEKELAAEKKRILHCLGLAEEIQKYCCSRK |  | this peptide is also a suitable substrate for BVR (1198±230 cpm) | both the mutated and unmutated peptides were phosphorylated to about the same extent (1049±78 cpm and 1081±183 cpm respectively) | IRS-1 is a substrate for BVR | both the mutated and unmutated peptides were phosphorylated to about the same extent (1049±78 cpm and 1081±183 cpm respectively) | in the presence of increasing amounts of IRS, there was an increase in phosphorylation of BVR by IR up to equimolar ratio of IRS/BVR
